Data on three substances can be found in patent EP1865065A1.

Holding throughout (experiment): cell-based or functional assay
Experiment [1] deals with murine LFA-3 (CD48) (murine) (UniProt P18181).
Experiment [2] concerns the target murine Intercellular adhesion molecule-1 (ICAM-1, CD54) (murine) (UniProt P13597).
Experiment [3] addresses murine B7-1 (CD80) (murine) (UniProt Q00609).
Sequence of UniProt Q00609 (Q00609 38-306): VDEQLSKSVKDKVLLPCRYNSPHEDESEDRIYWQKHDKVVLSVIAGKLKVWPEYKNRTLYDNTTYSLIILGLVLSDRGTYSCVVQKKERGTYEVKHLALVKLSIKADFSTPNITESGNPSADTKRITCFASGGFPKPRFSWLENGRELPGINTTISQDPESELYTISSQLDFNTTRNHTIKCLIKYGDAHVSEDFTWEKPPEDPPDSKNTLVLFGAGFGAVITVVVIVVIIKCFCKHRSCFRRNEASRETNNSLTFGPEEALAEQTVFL

Sequence of UniProt P18181 (P18181 23-217): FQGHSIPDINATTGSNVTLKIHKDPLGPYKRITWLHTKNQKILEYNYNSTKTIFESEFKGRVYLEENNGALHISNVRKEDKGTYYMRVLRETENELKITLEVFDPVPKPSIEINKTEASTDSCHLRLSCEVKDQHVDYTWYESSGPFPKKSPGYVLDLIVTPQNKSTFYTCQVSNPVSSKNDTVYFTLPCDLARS
Sequence of UniProt P13597 (P13597 28-537): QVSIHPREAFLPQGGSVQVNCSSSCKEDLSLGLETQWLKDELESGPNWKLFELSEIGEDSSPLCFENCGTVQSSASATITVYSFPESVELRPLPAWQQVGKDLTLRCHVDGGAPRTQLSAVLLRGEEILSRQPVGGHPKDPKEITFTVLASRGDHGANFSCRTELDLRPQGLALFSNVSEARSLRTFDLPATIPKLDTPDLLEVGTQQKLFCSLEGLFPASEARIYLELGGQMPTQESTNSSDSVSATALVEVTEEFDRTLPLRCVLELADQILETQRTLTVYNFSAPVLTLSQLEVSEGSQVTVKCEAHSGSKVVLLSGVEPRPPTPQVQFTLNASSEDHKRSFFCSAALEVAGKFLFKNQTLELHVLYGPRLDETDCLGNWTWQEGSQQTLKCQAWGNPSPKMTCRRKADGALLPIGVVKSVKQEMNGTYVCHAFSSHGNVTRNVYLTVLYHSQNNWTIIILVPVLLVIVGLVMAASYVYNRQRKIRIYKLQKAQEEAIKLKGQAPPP

In turn, “Hamster anti-murine CD48 (BCM-1; clone HM48-1) (antibody)” gave a reduction of the increased T-cell proliferation (3H-Thymidine) induced by MC38/LFA-3 stimulator cells with Con A in experiment [1] of 98%.
The substance “Hamster anti-murine CD54 (ICAM-1; clone 3E2) (antibody)” came in with a reduction of the increased T-cell proliferation (3H-Thymidine) induced by MC38/ICAM-1 stimulator cells with Con A in experiment [2] of 88%.
Take “Hamster anti-murine CD80 (B7-1; clone 16-10A1) (antibody)”: the inhibition of the increased T-cell proliferation (3H-Thymidine) induced by MC38/B7-1 stimulator cells with Con A in experiment [3] was 83%.
